The source of these data is publication PMC6447562, “Structures of the wild-type MexAB–OprM tripartite pump reveal its complex formation and drug efflux mechanism” (Nature Communications, 2019).

Substitutions are numbered along the chain they refer to.

B1: MexB, full length (natural protein)
chain: MSKFFIDRPIFAWVIALVIMLAGGLSILSLPVNQYPAIAPPAIAVQVSYPGASAETVQDTVVQVIEQQMNGIDNLRYISSESNSDGSMTITVTFEQGTDPDIAQVQVQNKLQLATPLLPQEVQRQGIRVTKAVKNFLMVVGVVSTDGSMTKEDLSNYIVSNIQDPLSRTKGVGDFQVFGSQYSMRIWLDPAKLNSYQLTPGDVSSAIQAQNVQISSGQLGGLPAVKGQQLNATIIGKTRLQTAEQFENILLKVNPDGSQVRLKDVADVGLGGQDYSINAQFNGSPASGIAIKLATGANALDTAKAIRQTIANLEPFMPQGMKVVYPYDTTPVVSASIHEVVKTLGEAILLVFLVMYLFLQNFRATLIPTIAVPVVLLGTFGVLAAFGFSINTLTMFGMVLAIGLLVDDAIVVVENVERVMAEEGLSPREAARKSMGQIQGALVGIAMVLSAVFLPMAFFGGSTGVIYRQFSITIVSAMALSVIVALILTPALCATMLKPIEKGDHGEHKGGFFGWFNRMFLSTTHGYERGVASILKHRAPYLLIYVVIVAGMIWMFTRIPTAFLPDEDQGVLFAQVQTPPGSSAERTQVVVDSMREYLLEKESSSVSSVFTVTGFNFAGRGQSSGMAFIMLKPWEERPGGENSVFELAKRAQMHFFSFKDAMVFAFAPPSVLELGNATGFDLFLQDQAGVGHEVLLQARNKFLMLAAQNPALQRVRPNGMSDEPQYKLEIDDEKASALGVSLADINSTVSIAWGSSYVNDFIDRGRVKRVYLQGRPDARMNPDDLSKWYVRNDKGEMVPFNAFATGKWEYGSPKLERYNGVPAMEILGEPAPGLSSGDAMAAVEEIVKQLPKGVGYSWTGLSYEERLSGSQAPALYALSLLVVFLCLAALYESWSIPFSVMLVVPLGVIGALLATSMRGLSNDVFFQVGLLTTIGLSAKNAILIVEFAKELHEQGKGIVEAAIEACRMRLRPIVMTSLAFILGVVPLAISTGAGSGSQHAIGTGVIGGMVTATVLAIFWVPLFYVAVSTLFKDEASKQQASVEKGQ
notes: MexB (RND transporter), Pseudomonas aeruginosa, full length; also called RND transporter; source: E. coli C43(DE3), membranes solubilised with DDM, purified (Ni-chelating Sepharose, Superdex200, CYMAL-7)
B2: MexA (a.a. 2-360) (natural protein)
chain: GKSEAPPPAQTPEVGIVTLEAQTVTLNTELPGRTNAFRIAEVRPQVNGIILKRLFKEGSDVKAGQQLYQIDPATYEADYQSAQANLASTQEQAQRYKLLVADQAVSKQQYADANAAYLQSKAAVEQARINLRYTKVLSPISGRIGRSAVTEGALVTNGQANAMATVQQLDPIYVDVTQPSTALLRLRRELASGQLERAGDNAAKVSLKLEDGSQYPLEGRLEFSEVSVDEGTGSVTIRAVFPNPNNELLPGMFVHAQLQEGVKQKAILAPQQGVTRDLKGQATALVVNAQNKVELRVIKADRVIGDKWLVTEGLNAGDKIITEGLQFVQPGVEVKTVPAKNVASAQKADAAPAKTDSKG
notes: MexA (membrane fusion protein), Pseudomonas aeruginosa, a.a; 2-360, lacks the signal peptide and the first cysteine; numbers count on: the mature protein; Six copies (a hexamer) stand in the assembled MexAB-OprM pump; also called MFP; membrane fusion protein; source: E. coli BL21-RILP(DE3), purified (Ni-NTA, TEV cleavage, Superdex200); not shown: His6, N-terminal, cleaved
B3: MexA R96A (natural protein, Pseudomonas aeruginosa, UniProt P52477 25-383, looked up)
chain: B2 chain with R95A
notes: MexA, Pseudomonas aeruginosa, a.a; 2-360 as m1; numbers count on: the mature protein; source: E. coli, expressed and purified as the wild type; not shown: His6, N-terminal, cleaved
B4: MexA L99D (natural protein, Pseudomonas aeruginosa, UniProt P52477 25-383, looked up)
chain: B2 chain with L98D
notes: as for B3
B5: MexA R96D (natural protein, Pseudomonas aeruginosa, UniProt P52477 25-383, looked up)
chain: B2 chain with R95D
notes: as for B3
B6: OprM, full length (natural protein)
chain: CSLIPDYQRPEAPVAAAYPQGQAYGQNTGAAAVPAADIGWREFFRDPQLQQLIGVALENNRDLRVAALNVEAFRAQYRIQRADLFPRIGVDGSGTRQRLPGDLSTTGSPAISSQYGVTLGTTAWELDLFGRLRSLRDQALEQYLATEQAQRSAQTTLVASVATAYLTLKADQAQLQLTKDTLGTYQKSFDLTQRSYDVGVASALDLRQAQTAVEGARATLAQYTRLVAQDQNALVLLLGSGIPANLPQGLGLDQTLLTEVPAGLPSDLLQRRPDILEAEHQLMAANASIGAARAAFFPSISLTANAGTMSRQLSGLFDAGSGSWLFQPSINLPIFTAGSLRASLDYAKIQKDINVAQYEKAIQTAFQEVADGLAARGTFTEQLQAQRDLVKASDEYYQLADKRYRTGVDNYLTLLDAQRSLFTAQQQLITDRLNQLTSEVNLYKALGGGWNQQTVTQQQTAKKEDPQA
notes: OprM (outer membrane factor), Pseudomonas aeruginosa, gene encoding full-length OprM; The full-length gene was expressed; also called OMF; outer membrane factor; source: E. coli C43(DE3), outer membranes solubilised with OG, purified (Ni-NTA, Superdex200, CYMAL-7)

Data set [1] concerns the molecule itself. The data set can be described thus: cryo-EM structure; MexA, MexB and OprM reconstituted in vitro, detergent replaced with amphipol A8-35, 50 mM HEPES-K pH 7.5; single-particle analysis; 0° and 60° states; without drug and with 10 mM novobiocin.
For data set [2], the target named is B6. The description is as above. As to conditions: both partners purified.
The target of the data set “MexB, full length” is B1. The data set can be described thus: SEC; complex-formation experiment: MexA, MexB and OprM (wild type, or one of them mutated) mixed at 3:1:1 in buffer C, dialysed against buffer D (20 mM Na-citrate, 300 mM KCl, 0.02% CYMAL-7) at 4 °C, Superdex200 16/60, 0.5 mL/min; the read-out is the formation of the tripartite complex. Particulars: both partners purified. (Size exclusion chromatography separates by hydrodynamic size, large species first.)

The target of data set [3] is B6. The data set is described as above. Particulars: both partners purified.

A word on the stoichiometry N: it is a count of units in the complex or per binding partner. For the molecule B1, the “stoichiometry N” value in data set [1] is 3. As to B2, the “stoichiometry N” value in data set [1] is 6; in the data set with OprM, full length [2] it was 2 MexA per OprM.

B3: the binding result is reported as “binds” with MexB, full length and “binds” with OprM, full length [3].

On to B4, for which the binding result is recorded as “binds” with MexB, full length and “binds” in the data set with OprM, full length [3].

As for B5, the binding result with OprM, full length [3] is listed as “binds”.

As to B6, in data set [1], the “stoichiometry N” value came out at 3.
